Measured values reported in doi:10.1101/2023.03.15.532784.

Target: Homo sapiens full-length TRPV4 (hTRPV4) with C-terminal FLAG-tag and 10xHis-tag (human) (UniProt Q9HBA0)
Experiment: cryo-EM structure

UniProt Q9HBA0, sequence (Q9HBA0 whole entry): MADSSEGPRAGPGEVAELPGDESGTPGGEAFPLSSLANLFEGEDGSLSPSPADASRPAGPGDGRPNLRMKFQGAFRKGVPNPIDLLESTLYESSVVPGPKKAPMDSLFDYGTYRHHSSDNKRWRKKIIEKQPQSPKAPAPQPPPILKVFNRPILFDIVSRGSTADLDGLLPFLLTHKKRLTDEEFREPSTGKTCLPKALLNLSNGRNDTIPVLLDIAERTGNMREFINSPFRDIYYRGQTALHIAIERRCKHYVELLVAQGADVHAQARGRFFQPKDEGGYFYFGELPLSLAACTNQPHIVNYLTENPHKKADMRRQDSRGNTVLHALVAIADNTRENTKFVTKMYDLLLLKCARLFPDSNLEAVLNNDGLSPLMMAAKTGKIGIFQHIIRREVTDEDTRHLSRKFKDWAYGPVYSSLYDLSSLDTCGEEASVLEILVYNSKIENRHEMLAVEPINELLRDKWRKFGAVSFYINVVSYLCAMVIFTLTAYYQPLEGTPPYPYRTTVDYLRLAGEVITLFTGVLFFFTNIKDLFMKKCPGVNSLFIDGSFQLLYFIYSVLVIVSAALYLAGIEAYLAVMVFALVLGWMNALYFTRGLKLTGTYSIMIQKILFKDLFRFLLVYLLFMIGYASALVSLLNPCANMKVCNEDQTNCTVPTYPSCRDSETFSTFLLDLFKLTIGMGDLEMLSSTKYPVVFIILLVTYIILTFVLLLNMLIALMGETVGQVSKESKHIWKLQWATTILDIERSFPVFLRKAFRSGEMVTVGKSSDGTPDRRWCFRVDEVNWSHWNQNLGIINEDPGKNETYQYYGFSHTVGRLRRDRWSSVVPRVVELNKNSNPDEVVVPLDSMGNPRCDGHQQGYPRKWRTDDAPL

stoichiometry N (RhoA per TRPV4 subunit): 1
Substance: endogenous RhoA copurified with overexpressed TRPV4 (from UniProt P61586 1-193) (natural protein)
